Measurements published in patent US20060252053A1 (Dana-Farber, published 2006).
Values belong to the molecule of their own block, whether it stands above or below them.

Columns and labels:
[1] = target: endogenous Apaf-1 polypeptide of 293T cells (human) (UniProt O14727); assay: cell-based or functional assay
[2] = target: T1, endogenous procaspase-3 (LNZ308, U87MG and 293T cells) (human, UniProt P42574 1-277); assay: anti-L12-2 immunoprecipitation from LNZ308, U87MG and 293T lysates, western blot
T1 sequence (looked up): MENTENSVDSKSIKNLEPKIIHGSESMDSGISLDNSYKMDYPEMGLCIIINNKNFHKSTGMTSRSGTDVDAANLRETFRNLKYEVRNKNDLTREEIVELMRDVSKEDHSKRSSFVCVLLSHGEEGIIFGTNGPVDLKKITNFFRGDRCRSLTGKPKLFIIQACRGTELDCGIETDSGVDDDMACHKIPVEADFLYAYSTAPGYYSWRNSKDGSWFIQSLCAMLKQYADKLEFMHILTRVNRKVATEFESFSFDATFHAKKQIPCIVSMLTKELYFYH
Experimental: (§1) To define further the molecular actions of Bcl2L12 polypeptides, the physical interactions with key post-mitochondrial apoptosis signaling molecules were assessed. Anti-L12-2 immunoprecipitates from lysates of LNZ308, U87MG, and 293T cells were subjected to western blot analysis for procaspases 7 and 3 and cytochrome c. Briefly, cells were lysed in IP buffer. Cleared supernatants were incubated with prebleed serum (8 μl) coupled to Protein A-sepharose 4B beads (Sigma) for 1 hour and subsequently with anti-L12-2 antiserum (8 μl) for 1 to 2 hours. […] The blots were washed with PBS/Tween and developed with goat anti-rabbit IgG (1:10,000) or with goat anti-mouse antibodies (1:10,000) (Pierce) in 5% milk PBS/Tween. After washing with PBS/Tween, the blots were developed with the Lumigen PS3 kit (Amersham) following the manufacturer's protocol. 1/40 of the lysate used for the immunoprecipitation was loaded to quantify the amount of co-immunoprecipitated caspase-7. […] Anti-L12-2 immunoprecipitates from control- and siRNA#5-treated U87MG cells were also subjected to western blot analysis for caspase-7.

[3] = target: T2, cytochrome c (endogenous, LNZ308, U87MG and 293T cells) (human, UniProt P99999 2-105); assay: as above
T2 construct: also called apoptosome component cytochrome c
Experimental: as §1

T2 sequence (P99999 2-105 limits assumed): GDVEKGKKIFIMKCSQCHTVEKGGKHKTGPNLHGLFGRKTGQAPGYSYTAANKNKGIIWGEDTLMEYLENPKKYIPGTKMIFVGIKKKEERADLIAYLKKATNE
endogenous Apaf-1 polypeptide of 293T cells (human), sequence (O14727 whole entry): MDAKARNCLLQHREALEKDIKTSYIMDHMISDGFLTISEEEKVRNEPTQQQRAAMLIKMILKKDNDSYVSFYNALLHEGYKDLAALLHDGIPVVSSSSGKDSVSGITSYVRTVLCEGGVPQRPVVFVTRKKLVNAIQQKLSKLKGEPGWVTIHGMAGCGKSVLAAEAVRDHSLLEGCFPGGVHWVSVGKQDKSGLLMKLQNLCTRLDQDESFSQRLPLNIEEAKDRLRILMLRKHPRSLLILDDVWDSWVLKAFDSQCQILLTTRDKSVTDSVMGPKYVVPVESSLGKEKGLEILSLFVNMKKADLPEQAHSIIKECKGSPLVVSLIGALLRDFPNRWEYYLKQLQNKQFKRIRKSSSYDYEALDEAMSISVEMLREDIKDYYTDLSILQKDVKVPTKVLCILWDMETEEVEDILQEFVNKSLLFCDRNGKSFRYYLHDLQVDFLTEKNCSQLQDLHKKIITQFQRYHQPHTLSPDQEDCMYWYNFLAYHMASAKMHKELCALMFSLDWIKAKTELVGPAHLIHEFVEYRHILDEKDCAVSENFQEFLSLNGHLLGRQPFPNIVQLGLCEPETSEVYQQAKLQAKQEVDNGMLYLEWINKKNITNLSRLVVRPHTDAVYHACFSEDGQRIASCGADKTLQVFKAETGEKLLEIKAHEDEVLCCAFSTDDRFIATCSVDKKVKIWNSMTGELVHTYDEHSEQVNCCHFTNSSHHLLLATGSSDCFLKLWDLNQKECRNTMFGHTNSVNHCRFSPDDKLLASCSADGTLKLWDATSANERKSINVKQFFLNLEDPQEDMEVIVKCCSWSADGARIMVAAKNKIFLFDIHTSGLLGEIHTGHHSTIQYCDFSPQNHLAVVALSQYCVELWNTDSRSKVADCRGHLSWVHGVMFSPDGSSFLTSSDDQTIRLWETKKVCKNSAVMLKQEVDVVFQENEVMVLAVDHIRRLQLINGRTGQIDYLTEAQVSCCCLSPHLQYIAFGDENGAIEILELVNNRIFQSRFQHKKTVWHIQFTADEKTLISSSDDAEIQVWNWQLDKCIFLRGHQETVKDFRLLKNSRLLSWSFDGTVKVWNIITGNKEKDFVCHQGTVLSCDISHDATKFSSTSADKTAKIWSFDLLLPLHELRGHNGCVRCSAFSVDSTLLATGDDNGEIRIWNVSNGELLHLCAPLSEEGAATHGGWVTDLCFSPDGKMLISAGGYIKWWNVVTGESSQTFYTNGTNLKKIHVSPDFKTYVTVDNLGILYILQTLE

caspase-9 activity in 293T cells (vector only: about 420 RFUs) [1]: 160 RFUs
Molecule: Bcl2L12-ΔBH2ΔP-rΔIHD polypeptide, V5 tagged (human amino acid sequence 1-167)

binding result [2]: no binding
binding result [3]: no binding
B1: endogenous Bcl2L12 polypeptide of human cell lines (LNZ308, LN443, LN382, U87MG, 293T) (other)
chain: MGRPAGLFPPLCPFLGFRPEACWERHMQIERAPSVPPFLRWAGYRPGPVRRRGKVELIKFVRVQWRRPQVEWRRRRWGPGPGASMAGSEELGLREDTLRVLAAFLRRGEAAGSPVPTPPRSPAQEEPTDFLSRLRRCLPCSLGRGAAPSESPRPCSLPIRPCYGLEPGPATPDFYALVAQRLEQLVQEQLKSPPSPELQGPPSTEKEAILRRLVALLEEEAEVINQKLASDPALRSKLVRLSSDSFARLVELFCSRDDSSRPSRACPGPPPPSPEPLARLALAMELSRRVAGLGGTLAGLSVEHVHSFTPWIQAHGGWEGILAVSPVDLNLPLD
notes: Endogenous protein in lysates or fixed cells of human cell lines
